From patent publication US20220296727A1, “Immunoconjugate” (DendroCyte BioTech Pty Ltd, priority 2019, published 2022)
“Also recorded” adds a separate entry of the source.

Assays:
HL-60 = experiment: Cytotoxicity assay on HL-60 AML cell line; assay type: cell-based
Method: (§1) Kinetic analysis was performed as above.
(§2) DCR-2 and an isotype control mAb were conjugated to a PBD dimer toxin, to assess potential cytotoxicity. The cytotoxicity of DCR-2-PBD and the isotype-PBD were tested against CD300f+ and CD300f− cell lines and the results are shown in FIG. 6 and Table 2.

THP-1 = experiment: Cytotoxicity assay on THP-1 AML cell line; assay type: cell-based
Method: as §1, §2

primary AML = experiment: Colony forming unit assay, primary AML samples; assay type: cell-based, human
Method: CB cells, plated at 2×10^4 cells/well in semi-solid methylcellulose medium (MethoCult Classic, Stemcell Technologies) in a 24 well plate (Corning, N.Y., USA), were cultured at 37° C. in 5% CO2 for 14 days when colony forming units (CFU) were scored. DCR-2-PBD or isotype-PBD was added to each well for continuous exposure. Three CB samples were tested with duplicate wells performed in each experiment.
Two primary AML samples were tested: CRGH1 with low CD300f expression (MFI ratio of 2.6) and CRGH9 with a high CD300f expression (MFI 109.9) (FIG. 9).

HL-60 cell line = experiment: Exposure time (kinetic) cytotoxicity on HL-60; assay type: cell-based
Method: as §1
The exposure time required for DCR-2-PBD to cause cytotoxicity on the HL-60 cell line was assessed and the results are shown in FIG. 10. The viability of HL-60 cells was reduced to less than 10% within 5 hours of exposure to DCR-2PBD. At 12 hours, greater than 98% of HL-60 proliferation was inhibited while at 24 and 96 hours inhibition was greater than 99%.

[1] = tested on: monocyte-derived dendritic cells (MoDC); experiment: Monocyte-derived dendritic cell (MoDC) toxicity assay; assay type: cell-based, human; settings: 200 pmol, 72 hours
Method: PBMC were incubated in complete RPMI media with or without DCR-2-PBD (200 pmol). After 12 hours, washed cells were incubated for a further 12 hours with or without LPS then phenotyped for the expression of activation markers on DC populations. MoDC were derived from CD14+ monocytes as described previously (Fromm et al. J Leukoc Biol. 2020; 107(2):323-339). DCR-2-PBD or isotype-PBD (200 pmol) were added for 72 hours prior to enumeration of live cells by flow cytometry.

T cells = experiment: Mixed leucocyte reaction; assay type: cell-based, human; settings: 200 pmol, 24 hours pre-incubation of stimulators, day 5
Method: DCR-2PBD's impact on antigen presentation was assessed by incubating DCR-2PBD or isotope-PBD with whole PBMC for 24 hours then washing, afterwards adding allogenic CFSE labeled T cells (naive CD4, magnetically separated) and measuring T cell division via reduction in CFSE expression. In more detail, T cells were depleted from PBMC by magnetic selection using an AutoMACS Pro with anti-CD3 mAb (HIT3a, Biolegend) with greater than 90% depletion in all samples. The CD3-depleted PBMC were incubated in complete RPMI media with DCR-2-PBD (200 pmol), isotype-PBD (200 pmol) or PBS for 24 hours. After washing to remove unbound ADC, the CD3-depleted PBMC were used to stimulate allogeneic CFSE labelled naive CD4+ T cells which had been prepared using a RosetteSep Kit (Stem Cell Technologies 17555). On day 5 the proliferation of T cells, identified using anti-CD3 AF700 (SP34-2), was assessed by CFSE reduction using flow cytometry. The results of the DCR-2-PBD and isotype-PBD groups were normalised to the PBS control group. […]
T cells were depleted from PBMC by magnetic selection using an AutoMACS Pro with anti-CD3 mAb (HIT3a, Biolegend) with greater than 90% depletion in all samples. […] On day 5 the proliferation of T cells, identified using anti-CD3 AF700 (SP34-2), was assessed by CFSE reduction using flow cytometry. […]

HL-60 cells = experiment: HL-60 leukemic xenograft model in NSG mice; assay type: in vivo, mouse
Method: For the HL-60 leukemic model, NSG mice were irradiated with 200cGy 24 hours prior to intravenous administration of 5×10^6 HL-60 cells. On day 7, mice were injected with DCR-2-PBD, isotype-PBD or PBS and monitored for disease progression and survival. Mice were euthanised when their clinical score was ≥4 or on d70.
On day 7, mice received a single injection of either PBS, or 300 μg/kg of CMRF-81PBD or DCR-2PBD, and their survival monitored.

[2] = tested on: human HSPC and myeloid cells; experiment: Humanised (CD34+ engrafted) NSG mouse model; assay type: in vivo; settings: single dose 300 ug/kg, day 7
Method: The humanised mouse model used frozen CD34^+ cells (>95% purity) isolated by positive selection (Miltenyi 130-046-702) according to the manufacturer's instructions from two pooled CB samples. Each NSG mouse was injected with 100,000 CD34+ cells 4 hours after receiving a 150cGy irradiation dose. Engraftment as determined by % human CD45+ cells in venous blood was assessed at 12 weeks. Mice were assigned to treatment groups to have similar means of human CD45+ percentage in the PB (10.16% DCR-2-PBD cohort and 10.74% isotype-PBD cohort). Mice were then injected with 300 ug/kg of DCR-2-PBD or isotype-PBD. Mice were euthanised on day 7 and human CD45+ cells from BM (bilateral femurs and tibias) and 300 μl blood were enumerated and phenotyped by flow cytometry.

primary AML cells = experiment: Primary AML xenograft in NSG mice; assay type: in vivo, mouse; settings: single dose 300 ug/kg
Method: For primary AML xenografts, NSG mice were irradiated with 150cGy 24 hours before 8×10^6 AML cells from CRGH11 (sample 10 Table S1) were injected iv. Once engraftment was established (>1% human CD45 positive events in PB), mice were given DCR-2-PBD or isotype-PBD. Mice were euthanised 6 days later and the BM was harvested for enumeration and surface marker analysis by flow cytometry.

B1: DCR-2PBD: anti-CD300f mAb DCR-2 conjugated to pyrrolobenzodiazepine dimer via Cathepsin B-cleavable linker MA-PEG4-VA-PBD; drug to antibody ratio 3.3 (conjugate)
VH: MESGGGLVQPGGPLKLSCAASGFGFSGSWMSWVRQAPGKGLEWIGQINPDSSTINYTPSLKDKFIISRDNAKNTLYLQINKVRSEDTALYYCARRGFFEGYSAWFAYW
VL: ILMTQTPKFLLVSAGDRVTITCKASQSVSNDVAWYQQKPGQSPSLLIYYASNRNTGVPDRFTGSGYETDFTFTISTVQAEDLAVYFCQQDYTSPWTFGGG
HL-60
  IC50: 0.00544 nM
THP-1
  IC50: 0.0294 nM
Primary AML; CRGH1 (low CD300f expression), 196.1 pM
  toxicity against primary AML CFU: Significant toxicity
Primary AML; CRGH9 (high CD300f expression), all dose levels (P<0.001)
  toxicity against primary AML CFU: Significant toxicity
HL-60 cell line; 12 hours exposure
  HL-60 proliferation inhibited: greater than 98%
HL-60 cell line; 24 hours exposure
  HL-60 proliferation inhibition: greater than 99%
HL-60 cell line; 96 hours exposure
  HL-60 proliferation inhibition: greater than 99%
HL-60 cell line; incubation up to 96 hours
  time dependent cytotoxicity: rapid cytotoxicity
HL-60 cell line; within 5 hours of exposure
  viability of HL-60 cells: less than 10%
[1]
  effect on MoDC survival: little effect
T cells
  T cell proliferation in mixed lymphocyte reaction: no impact; also recorded: does not reduce T cell proliferation
HL-60 cells; 300 ug/kg
  human cells in mice surviving until day 70: No human cells could be detected
HL-60 cells; 300 ug/kg, endpoint day 70
  animals surviving to the experiment endpoint: Six of 8
HL-60 cells; single injection 300 ug/kg on day 7 (p=0.0058)
  survival compared to isotype-PBD: significantly increased survival
[2]
  CD34+ cells as percentage of total human CD45+ cells: 3.09%
  CD34+CD38-CD90+ cells as percentage of total human CD45+ cells: 0.16%
  lymphocytes in the peripheral blood: 208.5 cells/μl
  mean CD34+CD38-CD90+ cell count in BM: 0.05×10^4
  myeloid cells in the peripheral blood: 0.31 cells/μl
Primary AML cells
  AML cells as mean percentage of total cells in BM: 12.32%
  human AML cells in BM, mean total enumeration: 0.37×10^6
